Target: T1, native FtsZ (Streptococcus pneumoniae R800, UniProt A0A0H2ZNE0 1-419)
T1 sequence (looked up): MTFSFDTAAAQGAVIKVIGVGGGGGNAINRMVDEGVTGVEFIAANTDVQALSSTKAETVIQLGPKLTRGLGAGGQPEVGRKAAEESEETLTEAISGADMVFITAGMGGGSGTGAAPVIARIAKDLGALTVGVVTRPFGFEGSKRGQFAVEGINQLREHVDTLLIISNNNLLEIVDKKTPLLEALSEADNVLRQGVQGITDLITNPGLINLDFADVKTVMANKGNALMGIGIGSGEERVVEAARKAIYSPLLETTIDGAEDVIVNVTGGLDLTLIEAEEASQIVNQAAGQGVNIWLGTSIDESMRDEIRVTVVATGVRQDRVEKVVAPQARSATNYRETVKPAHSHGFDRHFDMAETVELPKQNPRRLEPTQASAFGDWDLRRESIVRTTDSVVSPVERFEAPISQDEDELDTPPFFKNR
Assay: MST

B1: RocS-ΔAH-6His (domain or fragment, Streptococcus pneumoniae R800, UniProt Q8DQ15 1-150, looked up)
chain: MSIEMTVSEIAEVLGLSRQAINNRVKELPEEDTDKNDKGVTVVTRSGLIKLEEIYKKTIFEDEPVSEDVKQRELMEILVDEKNAEILRLYEQLKAKDRQLSEKDEQMRIKDRQIAEKDKQLDQQQQLTLQAMKDQENLKLELDQAKEEVQ
modifications: labeled with the red dye NT-647
binding result: binds

— article PMC7611331 (Nature microbiology, 2019)
